Results: patent US7135326B2, “UDP-glucosyltransferases” (E. I. du Pont de Nemours and Company, priority 2002, dated 2006)
One block for each molecule: values may come before it.

Columns and labels:
[1] = system: Arabidopsis thaliana glucosyltransferase UGT84A3 (GT 4, SEQ ID NO:12); conditions: 20° C., pH 6; calculated from Vmax of Lim et al. 2001; cited from earlier work
[2] = Acid and base hydrolysis of pHBA glucose conjugates, HPLC; format: physicochemical; conditions: 48 h at 60° C. with NaOH or HCL, 0.19 mM
Description: The initial concentration of both compounds was 0.19 mM and the total reaction volume was […]. Reactions were conducted in tightly sealed polypropylene tubes to prevent evaporative loss. […] Prior to HPLC analysis, the acid hydrolyzed samples were diluted with an equal volume of NaOH that contained a 0.2 mM excess of NaOH relative to the original concentration of HCL. The base hydrolyzed samples were analyzed directly. Chemically synthesized pHBA phenolic and ester glucoside standards and free pHBA were used to calibrate the HPLC runs for retention times, and extinction coefficients for all three compounds were accurately determined under the conditions employed. Peak areas were integrated using the software package provided with the Hewlett Packard Chemstation, and values obtained with known amounts of the chemical standards were used to quantitate compounds of interest in the acid and base hydrolyzed samples.

[3] = system: Arabidopsis thaliana glucosyltransferase UGT84A2; conditions: 20° C., pH 6; calculated from Vmax of Lim et al. 2001; cited from earlier work
[4] = target: CPL (Escherichia coli, UniProt P26602); assay: Product inhibition of CPL by pHBA; format: biochemical, E. coli; conditions: read-out: inhibitory constant (Ki)
Description: Although double transformant line 39 and the CPL control plant had essentially the same amount of CPL enzyme activity as measured in leaf extracts (Table 8), this doesn't necessarily reflect the situation in vivo. CPL enzyme assays are conducted under optimal conditions, and measure initial velocities in the presence of excess substrate and absence of products. Thus, the initial rate of product formation in the in vitro assay is strictly proportional to the amount of enzyme that is added to the cuvette. Consequently, if two plants had identical levels of CPL gene expression, leaf extracts prepared from these plants would theoretically yield the same initial velocity in the in vitro assay. […] Applicants confirmed these observations.

[5] = system: Grape GT; assay: Substrate specificity of the purified recombinant Grape GT, HPLC analysis of glucose ester formation; format: biochemical, Vitis sp.; conditions: relative to pHBA = 100, 10 mM test substrate, 0.0467 μM purified Grape GT, 15 min, 25° C.
Description: To rule out the possibility that the Grape GT can also attach glucose to the hydroxyl group of pHBA, the products of the in vitro enzyme reaction were directly analyzed by reverse phase HPLC. […] Following a 1-min incubation period at 25° C., the reactions were terminated by the addition of an equal volume of 0.2 N HCl. […] The column was developed at 1 mL/min with a linear gradient of 10–50% Buffer B that was generated over a 20-min period, and absorbance was monitored at 254 nm. […] To test this hypothesis, Applicants' decided to examine the substrate specificity of the Grape GT in greater detail. […] Following a 15-min incubation period at 25° C., the reactions were quenched with an equal volume of 0.3 M HCl and the entire reaction mixture was analyzed by HPLC as described above in Example 6. The products of the various reactions were identified using authentic chemical standards. The retention times and extinction coefficients of these compounds were determined using the same column conditions. […] Regardless of substrate, the purified recombinant Grape GT only catalyzed the formation of glucose esters, which in all cases co-migrated precisely with the authentic compounds. […] Since the glucose ester of the latter compound is the precursor for the synthesis of simple and complex tannins that are extremely abundant in grapes, it is possible that gallic acid is a physiological substrate of the Grape GT. The data shown in Table 3 make it clear that although the Grape GT glucosylated mHBA (3-hydroxybenzoic […]) at a reasonable rate, product formation with oHBA (2-hydroxybenzoic acid) was not observed.

[6] = Continuous spectrophotometric UDP-glucosyltransferase assay, formation of pHBA glucose ester at 304 nm, E. coli cell-free extracts; format: biochemical; conditions: crude extract, 10 mM UDP-glucose, pH 7.3, 25° C.
Description: (§1) For protein production, the resulting recombinant strains were grown at 22° C. in 50 mL of LB media that contained kanamycin (50 μg/mL). At an A600 nm of ˜0.6, isopropyl-1-thio-β-D-galactopyranoside was added to a final concentration of 0.2 mM. Following a 22-h induction period at the same temperature, the cells were harvested by centrifugation and stored at −80° C. for subsequent manipulation as described below.
(§2) The frozen cell pellets were resuspended in 1.0 mL of a solution containing 100 mM Tris-HCl (pH 7.7), 5 mM MgSO4, 1 mM dithiothreitol, 0.03 mg/mL DNAse I, 0.5 mM phenylmethanesulfonyl fluoride, and passed once through a French pressure cell at 20,000 psi. Debris was removed by centrifugation (43,000×g, 60 min), and the resulting cell-free extracts, containing ˜15 mg of protein per mL, were supplemented with 5% glycerol and stored at −80° C. for subsequent measurements of enzyme activities. Protein concentrations were determined by the Bradford Method using bovine serum albumin as a standard.

[7] = Ratio of enzyme activity with pHBA versus sinapic acid (spectrophotometric assays); format: biochemical; conditions: for pHBA/SA ratio of enzyme activity: crude extract
Description: (§3) The second assay is based on the increase in absorbance at 368 nm that accompanies the formation of the glucose ester of sinapic acid. The experimental conditions were the same as those described above, but the test substrate was sinapic acid and product formation was calculated using an extinction coefficient of 5,570 M^−1 that was obtained with the authentic chemically synthesized compound under identical conditions.

[8] = Freeze/thaw stability of the purified recombinant Grape GT; format: physicochemical; conditions: diluted in buffer with 6% glycerol and 5 mM dithiothreitol, kept on ice, frozen to −80° C.
Description: For all the enzyme assays described below, frozen aliquots of the purified Grape GT were rapidly thawed and diluted to the desired concentration with ice-cold buffer containing 50 mM Tris-HCl (pH 7.6), 1 mM EDTA, 10 mM Na2SO3, 300 mM NaCl, 6% glycerol and 5 mM dithiothreitol.

[9] = Continuous spectrophotometric UDP-glucosyltransferase assay, formation of glucose ester of sinapic acid at 368 nm, E. coli cell-free extracts; format: biochemical; conditions: crude extract, 10 mM UDP-glucose, pH 7.3, 25° C.
Description: as §1, §2, §3

[10] = Reverse phase HPLC analysis of the products of the in vitro enzyme reaction with pHBA; format: biochemical
Description: To rule out the possibility that the Grape GT can also attach glucose to the hydroxyl group of pHBA, the products of the in vitro enzyme reaction were directly analyzed by reverse phase HPLC. […] Following a 1-min incubation period at 25° C., the reactions were terminated by the addition of an equal volume of 0.2 N HCl. The samples were briefly centrifuged, and 20-μL aliquots of the resulting supernatants were injected onto a Vydac 218TP54 Protein and Peptide C18 column, (Grace Vydac, Hesperia, Calif.) pre-equilibrated with 90% Buffer A (0.1% formic acid in water) and 10% Buffer B (methanol). The column was developed at 1 mL/min with a linear gradient of 10–50% Buffer B that was generated over a 20-min period, and absorbance was monitored at 254 nm.
In light of these observations, it was extremely important to analyze the reaction products of the Grape GT over a broader range of pH that encompasses physiological conditions. […] In addition, the reaction mixtures also contained 100 mM potassium phosphate buffer (pH 6.0, 7.0 or 8.0), 5 mM MgCl2, 5 mM UDP-glucose, 2 mM dithiothreitol, and 0.47 μM of the purified recombinant Grape GT. After a 15-min incubation period, the reactions were terminated by the addition of an equal volume of 0.3 M HCl and analyzed by reverse phase HPLC as described above. […]

Chain of CPL (P26602 whole entry): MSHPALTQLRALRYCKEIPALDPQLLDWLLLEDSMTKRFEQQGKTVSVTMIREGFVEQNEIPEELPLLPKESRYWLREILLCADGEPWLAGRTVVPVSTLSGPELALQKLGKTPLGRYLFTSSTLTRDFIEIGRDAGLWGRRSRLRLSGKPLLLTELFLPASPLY

Molecule: O=C(O)/C=C/c1ccccc1 [cinnamic acid]
turnover number with cinnamic acid [1]: ~0.9 s⁻¹

Molecule: O=C(O[C@@H]1O[C@H](CO)[C@@H](O)[C@H](O)[C@H]1O)c1ccc(O)cc1 [pHBA glucose ester]
susceptibility to acid and base hydrolysis [2]: far more susceptible to acid and base hydrolysis than the pHBA phenolic glucoside

Molecule: COc1cc(/C=C/C(=O)O)cc(OC)c1O [sinapic acid, Sinapic acid]
turnover number with sinapic acid [3]: ~0.72 s⁻¹

Molecule: O=C(O)c1ccc(O)cc1 [PHBA, p-Hydroxybenzoic acid]
Ki [4]: ~2000 nM
Relative Rate of product formation [5]: 100

substrate preference for pHBA over sinapic acid ([7]; 10 mM substrate concentration): 37.7 fold
rate of pHBA glucosylation relative to sinapic acid ([7]; 10 mM substrate, cell-free extract): ~40 times
Ratio of Activity pHBA/SA ([7]; Table 4, cell-free extracts, 10 mM pHBA or sinapic acid, 25° C.): 37.7
B1: Grape GT: Vitis sp. UDP-glucosyltransferase, SEQ ID NO:18, recombinant from E. coli (protein)
chain: MGSESKLVHVFLVSFPGQGHVNPLLRLGKRLASKGLLVTFSTPESIGKQMRKASNITDQPTPVGEGLIRFEFFEDEWDENEPKRQDLDLYLPQLELVGKKVLPQMIKKHAEQDRPVSCLINNPFIPWVSDVAADLGIPSAMLWVQSCACFSTYYHYYHGLVPFPSEAEPEIDVQLPCMPLLKYDEVASFLYPTTPYPFLRRAILGQYRNLDKPFCILMDTFQELEPEVIEYMSKICPIKPVGPLYKNPKVPNAAVRGDFMKADDCIEWLDSKPPSSIVYVSFGSVVYLKQDQVDEIAYGLLNSGLQFLWVMKPPHKDAGLELLVLPEGFLEKAGDKGKVVQWSPQEQVLAHPSVACFVTHCGWNSSMEALSSGMPVVAFPQWGDQVTDAKYLVDEFKIGVRMCRGEAENKLITRDEVEKCLIEATTGPKAAELKQNAMKWKKAAEQAVAEGGSSERNLQGFVDEVRRRSIEIIYKTKI
modifications: Vitis ssp.
initial rate of product formation, 1 mM pHBA ([6]; 1 mM pHBA): 96.4 μM per min
initial rate of product formation, 5 mM pHBA ([6]; 5 mM pHBA): 177 μM per min
initial rate of product formation, 10 mM pHBA ([6]; 10 mM pHBA): 181 μM per min
pHBA/SA ratio of enzyme activity ([7]; 1 mM substrate): 4.23
pHBA/SA ratio of enzyme activity ([7]; 5 mM substrate): 10.7
pHBA/SA ratio of enzyme activity ([7]; 10 mM substrate): 37.7
stability to freeze/thaw [8]: stable to multiple cycles of freeze/thaw without significant loss of enzyme activity
initial rate of product formation, 1 mM SA ([9]; 1 mM sinapic acid): 22.8 μM per min
initial rate of product formation, 5 mM SA ([9]; 5 mM sinapic acid): 16.6 μM per min
initial rate of product formation, 10 mM SA ([9]; 10 mM sinapic acid): 4.8 μM per min
glucose conjugates detected by HPLC ([10]; pH 6.0, 7.0 or 8.0, 0.15 mM or 5 mM pHBA, 0.47 μM purified Grape GT, 15 min): the only glucose conjugate that was detected in the in vitro assay was the pHBA glucose ester
glucosylated products detected by HPLC ([10]; purified enzyme, pH 7.3, 0.3 mM pHBA, 5 mM UDP-glucose, 25° C. (Example 6)): the only glucosylated product that was detected in the fractionated enzyme reaction mixture was the pHBA glucose ester
